Assay results taken from patent US20090297501A1 (Chugai, published 2009).
Read-outs that look alike come from different tables or passages of the source.

T1: human Mpl (human, UniProt P40238 26-635)
T1 sequence (looked up): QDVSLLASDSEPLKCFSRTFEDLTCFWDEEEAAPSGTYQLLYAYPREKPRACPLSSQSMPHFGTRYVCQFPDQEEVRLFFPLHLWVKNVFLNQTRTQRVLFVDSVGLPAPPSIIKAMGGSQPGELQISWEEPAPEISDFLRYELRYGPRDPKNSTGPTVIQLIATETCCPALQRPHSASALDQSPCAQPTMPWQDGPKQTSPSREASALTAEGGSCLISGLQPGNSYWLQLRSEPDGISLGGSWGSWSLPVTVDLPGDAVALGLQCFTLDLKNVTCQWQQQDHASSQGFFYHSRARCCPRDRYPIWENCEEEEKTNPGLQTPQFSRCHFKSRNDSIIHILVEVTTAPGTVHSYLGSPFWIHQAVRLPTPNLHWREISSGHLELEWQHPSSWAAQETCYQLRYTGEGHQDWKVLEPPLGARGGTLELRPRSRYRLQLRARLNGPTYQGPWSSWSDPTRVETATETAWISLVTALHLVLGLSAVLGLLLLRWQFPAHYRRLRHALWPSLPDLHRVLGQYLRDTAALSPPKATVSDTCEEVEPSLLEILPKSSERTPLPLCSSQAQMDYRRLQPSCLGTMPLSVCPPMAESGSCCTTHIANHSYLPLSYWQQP


Experiments:
[1] = molecular target: Mpl on the BaF3 cells used in FIG. 33 (human or monkey, not stated); test: cell-based or functional assay
[2] = molecular target: monkey Mpl (monkey); test: cell-based or functional assay
[3] = molecular target: T1, human Mpl; test: cell-based or functional assay
[4] = molecular target: T2, fusion protein of GST and MG10 (Gln213 to Ala231 in the amino acid sequence of human Mpl) (human, UniProt P40238 213-231); test: Biacore 3000, MG10-GST amine-coupled on CM5, sc(Fv)2 as analyte, bivalent analyte model, n = 3
T2 construct: the parts follow the printed name MG10-GST; also called MG10-GST fusion protein; not shown: glutathione S-transferase (GST)
Procedure: The binding activities of hVB22B u2-wz4 sc(Fv)2, and peak 1 and peak 2 separated from hVB22B u2-wz4 sc(Fv)2 were evaluated as described below. Sensor Chip CM5 Biacore) was placed in Biacore 3000 (Biacore), and a fusion protein of MG10 (Gln213 to Ala231 of human Mpl) and GST described in Section 2-1 was immobilized onto the chip by the amine-coupling method. HSS-EP Buffer (Biacore) was used as the running buffer for the measurement. The flow rate was 20 μl/min. Six concentrations of each of humanized VB22B u2-wz4 sc(Fv)2 bulk, peak 1, and peak 2 within about 5 to 150 nM were prepared using HBS-EP Buffer. Each of the samples was injected over the above-described MG10-immobilized cell for 2 minutes to reveal the binding region. Then, the measurement was conducted for 2 minutes to reveal the dissociation region. VB22B sc(Fv)2 bound to the MG10-GST fusion protein was removed by injecting 20 mM HCl for 1 minute to recover the immobilized cell. The association rate constant (ka) and dissociation rate constant (kd) were calculated from the obtained sensorgram using the BIAevaluation Version 3.1 ([…]) software applying the bivalent analyte model.

[5] = molecular target: monkey Mpl (monkey); test: cell-based or functional assay; remark: listed apart in the source
[6] = molecular target: T1, human Mpl; test: cell-based or functional assay; remark: listed apart in the source
[7] = molecular target: monkey Mpl (monkey); test: cell-based or functional assay; remark: listed apart in the source
[8] = molecular target: T1, human Mpl; test: cell-based or functional assay; remark: listed apart in the source

| EC50 (read off the curve) (growth of Mpl-expressing BaF3 cells, WST-8; cell line not stated) [1] [ng/mL] | EC50 (read off the curve) (growth of BaF3-monkey Mpl cells, WST-8) [B] [2] [nM] | EC50 (read off the curve) (growth of BaF3-human Mpl cells, WST-8) [A] [3] [nM] | Kd [4] [nM] | koff [4] [s⁻¹] | kon [4] [M⁻¹ s⁻¹] | EC50 (read off the curve) (growth of BaF3-monkey Mpl cells, WST-8) [B] [5] [nM] | EC50 (read off the curve) (growth of BaF3-human Mpl cells, WST-8) [A] [6] [nM] | EC50 (read off the curve) (growth of BaF3-monkey Mpl cells, WST-8) [B] [7] [nM] | EC50 (read off the curve) (growth of BaF3-human Mpl cells, WST-8) [A] [8] [nM] | Binder |
| --- | --- | --- | --- | --- | --- | --- | --- | --- | --- | --- |
| – | – | – | 10.2 | 0.00617 | 608000 | ~0.04 | ~0.04 | ~0.02 | ~0.06 | humanized anti-human Mpl antibody hVB22B u2-wz4 sc(Fv)2 (bulk, before separation of the structural isomers) (scFv, sc(Fv)2, a single chain VH1-linker-VL2-linker-VH3-linker-VL4, not Flag-tagged; also called humanized VB22B u2-wz4 sc(Fv)2 bulk) QVQLVQSGPEVKKPGASVKVSCKASGYTFTNSWMNWVRQRPGKGLEWIGRIYPGDGETIYNGKFRVRVTITADESTSTAYMQLSSLRSEDTAVYYCARGYDDYSFAYWGQGTTVTVSSGGGGSGGGGSGGGGSDIVMTQSPLSLPVTPGEPASISCRSSKSLLHSNGNTYLYWFLQKPGQSPQLLIYRMSNLASGVPDRFSGSGSGTDFTLKISRVEAEDVGVYYCMQHIEYPFTFGQGTKLEIKGGGGSGGGGSGGGGSQVQLVQSGPEVKKPGASVKVSCKASGYTFTNSWMNWVRQRPGKGLEWIGRIYPGDGETIYNGKFRVRVTITADESTSTAYMQLSSLRSEDTAVYYCARGYDDYSFAYWGQGTTVTVSSGGGGSGGGGSGGGGSDIVMTQSPLSLPVTPGEPASISCRSSKSLLHSNGNTYLYWFLQKPGQSPQLLIYRMSNLASGVPDRFSGSGSGTDFTLKISRVEAEDVGVYYCMQHIEYPFTFGQGTKLEIK |
| – | – | – | – | – | – | – | – | ~0.04 | ~0.04 | modified hVB22B u2-wz4(v1) sc(Fv)2 (scFv) QVQLVQSGPEVKKPGASVKVSCKASGYTFTNSWMNWVRERPGKGLEWIGRIYPGDGETIYNGKFRVRVTITADESTSTAYMQLSSLRSEDTAVYYCARGYDDYSFAYWGQGTTVTVSSGGGGSGGGGSGGGGSDIVMTQSPLSLPVTPGEPASISCRSSKSLLHSNGNTYLYWFLEKPGQSPQLLIYRMSNLASGVPDRFSGSGSGTDFTLKISRVEAEDVGVYYCMQHIEYPFTFGQGTKLEIKGGGGSGGGGSGGGGSQVQLVQSGPEVKKPGASVKVSCKASGYTFTNSWMNWVRKRPGKGLEWIGRIYPGDGETIYNGKFRVRVTITADESTSTAYMQLSSLRSEDTAVYYCARGYDDYSFAYWGQGTTVTVSSGGGGSGGGGSGGGGSDIVMTQSPLSLPVTPGEPASISCRSSKSLLHSNGNTYLYWFLKKPGQSPQLLIYRMSNLASGVPDRFSGSGSGTDFTLKISRVEAEDVGVYYCMQHIEYPFTFGQGTKLEIK |
| – | – | – | – | – | – | – | – | – | ~0.1 | modified hVB22B u2-wz4(v3) sc(Fv)2 (scFv) QVQLVQSGPEVKKPGASVKVSCKASGYTFTNSWMNWVRERPGKGLEWIGRIYPGDGETIYNGKFRVRVTITADESTSTAYMQLSSLRSEDTAVYYCARGYDDYSFAYWGQGTTVTVSSGGGGSGGGGSGGGGSDIVMTQSPLSLPVTPGEPASISCRSSKSLLHSNGNTYLYWFLKKPGQSPQLLIYRMSNLASGVPDRFSGSGSGTDFTLKISRVEAEDVGVYYCMQHIEYPFTFGQGTKLEIKGGGGSGGGGSGGGGSQVQLVQSGPEVKKPGASVKVSCKASGYTFTNSWMNWVRKRPGKGLEWIGRIYPGDGETIYNGKFRVRVTITADESTSTAYMQLSSLRSEDTAVYYCARGYDDYSFAYWGQGTTVTVSSGGGGSGGGGSGGGGSDIVMTQSPLSLPVTPGEPASISCRSSKSLLHSNGNTYLYWFLEKPGQSPQLLIYRMSNLASGVPDRFSGSGSGTDFTLKISRVEAEDVGVYYCMQHIEYPFTFGQGTKLEIK |

Continued, binder first:

| Binder | EC50 (read off the curve) (growth of Mpl-expressing BaF3 cells, WST-8; cell line not stated) [1] [ng/mL] | EC50 (read off the curve) (growth of BaF3-monkey Mpl cells, WST-8) [B] [2] [nM] | EC50 (read off the curve) (growth of BaF3-human Mpl cells, WST-8) [A] [3] [nM] | Kd [4] [nM] | koff [4] [s⁻¹] | kon [4] [M⁻¹ s⁻¹] | EC50 (read off the curve) (growth of BaF3-monkey Mpl cells, WST-8) [B] [5] [nM] | EC50 (read off the curve) (growth of BaF3-human Mpl cells, WST-8) [A] [6] [nM] | EC50 (read off the curve) (growth of BaF3-monkey Mpl cells, WST-8) [B] [7] [nM] | EC50 (read off the curve) (growth of BaF3-human Mpl cells, WST-8) [A] [8] [nM] |
| --- | --- | --- | --- | --- | --- | --- | --- | --- | --- | --- |
| anti-human Mpl antibody VB22B sc(Fv)2 peak 2 (single chain diabody type structural isomer) (scFv) QVQLQQSGPELVKPGASVKISCKASGYAFTNSWMNWVKQRPGKGLEWIGRIYPGDGETIYNGKFRVKATLTADKSSSTAYMDISSLTSEDSAVYFCARGYDDYSFAYWGQGTLVTVSAGGGGSGGGGSGGGGSDIVMTQAAPSIPVTPGESVSISCRSSKSLLHSNGNTYLYWFLQRPGQSPQLLIYRMSNLASGVPDRFSGSGSGTAFTLRISRVEAEDVGVYYCMQHIEYPFTFGSGTKLEIKGGGGSGGGGSGGGGSQVQLQQSGPELVKPGASVKISCKASGYAFTNSWMNWVKQRPGKGLEWIGRIYPGDGETIYNGKFRVKATLTADKSSSTAYMDISSLTSEDSAVYFCARGYDDYSFAYWGQGTLVTVSAGGGGSGGGGSGGGGSDIVMTQAAPSIPVTPGESVSISCRSSKSLLHSNGNTYLYWFLQRPGQSPQLLIYRMSNLASGVPDRFSGSGSGTAFTLRISRVEAEDVGVYYCMQHIEYPFTFGSGTKLEIK | ~0.6 | ~0.02 | ~0.008 | – | – | – | – | – | – | – |
| hVB22B u2-wz4 sc(Fv)2 peak 2 (single chain diabody type structural isomer) (scFv, also called purified u2-wz4 peak 2) QVQLVQSGPEVKKPGASVKVSCKASGYTFTNSWMNWVRQRPGKGLEWIGRIYPGDGETIYNGKFRVRVTITADESTSTAYMQLSSLRSEDTAVYYCARGYDDYSFAYWGQGTTVTVSSGGGGSGGGGSGGGGSDIVMTQSPLSLPVTPGEPASISCRSSKSLLHSNGNTYLYWFLQKPGQSPQLLIYRMSNLASGVPDRFSGSGSGTDFTLKISRVEAEDVGVYYCMQHIEYPFTFGQGTKLEIKGGGGSGGGGSGGGGSQVQLVQSGPEVKKPGASVKVSCKASGYTFTNSWMNWVRQRPGKGLEWIGRIYPGDGETIYNGKFRVRVTITADESTSTAYMQLSSLRSEDTAVYYCARGYDDYSFAYWGQGTTVTVSSGGGGSGGGGSGGGGSDIVMTQSPLSLPVTPGEPASISCRSSKSLLHSNGNTYLYWFLQKPGQSPQLLIYRMSNLASGVPDRFSGSGSGTDFTLKISRVEAEDVGVYYCMQHIEYPFTFGQGTKLEIK | – | – | – | 9.92 | 0.00566 | 571000 | ~0.03 | ~0.04 | ~0.02 | ~0.05 |
| anti-human Mpl antibody VB22B sc(Fv)2 (scFv) QVQLQQSGPELVKPGASVKISCKASGYAFTNSWMNWVKQRPGKGLEWIGRIYPGDGETIYNGKFRVKATLTADKSSSTAYMDISSLTSEDSAVYFCARGYDDYSFAYWGQGTLVTVSAGGGGSGGGGSGGGGSDIVMTQAAPSIPVTPGESVSISCRSSKSLLHSNGNTYLYWFLQRPGQSPQLLIYRMSNLASGVPDRFSGSGSGTAFTLRISRVEAEDVGVYYCMQHIEYPFTFGSGTKLEIKGGGGSGGGGSGGGGSQVQLQQSGPELVKPGASVKISCKASGYAFTNSWMNWVKQRPGKGLEWIGRIYPGDGETIYNGKFRVKATLTADKSSSTAYMDISSLTSEDSAVYFCARGYDDYSFAYWGQGTLVTVSAGGGGSGGGGSGGGGSDIVMTQAAPSIPVTPGESVSISCRSSKSLLHSNGNTYLYWFLQRPGQSPQLLIYRMSNLASGVPDRFSGSGSGTAFTLRISRVEAEDVGVYYCMQHIEYPFTFGSGTKLEIK | – | ~0.03 | ~0.01 | – | – | – | – | – | – | – |
| hVB22B u2-wz4 sc(Fv)2 peak 1 (bivalent scFv type structural isomer) (scFv, also called purified u2-wz4 peak 1) QVQLVQSGPEVKKPGASVKVSCKASGYTFTNSWMNWVRQRPGKGLEWIGRIYPGDGETIYNGKFRVRVTITADESTSTAYMQLSSLRSEDTAVYYCARGYDDYSFAYWGQGTTVTVSSGGGGSGGGGSGGGGSDIVMTQSPLSLPVTPGEPASISCRSSKSLLHSNGNTYLYWFLQKPGQSPQLLIYRMSNLASGVPDRFSGSGSGTDFTLKISRVEAEDVGVYYCMQHIEYPFTFGQGTKLEIKGGGGSGGGGSGGGGSQVQLVQSGPEVKKPGASVKVSCKASGYTFTNSWMNWVRQRPGKGLEWIGRIYPGDGETIYNGKFRVRVTITADESTSTAYMQLSSLRSEDTAVYYCARGYDDYSFAYWGQGTTVTVSSGGGGSGGGGSGGGGSDIVMTQSPLSLPVTPGEPASISCRSSKSLLHSNGNTYLYWFLQKPGQSPQLLIYRMSNLASGVPDRFSGSGSGTDFTLKISRVEAEDVGVYYCMQHIEYPFTFGQGTKLEIK | – | – | – | 12.4 | 0.00727 | 586000 | – | ~0.07 | – | ~0.09 |
